# Reference: article doi:10.1101/2020.12.15.422856 (bioRxiv, 2020)
# B1: Mer2 (wild-type, full-length) (natural protein)
# chain: MVARGRTDEISTDVSEANSEHSLMITETSSPFRSIFSHSGKVANAGALEESDKQILEWAGKLELESMELRENSDKLIKVLNENSKTLCKSLNKFNQLLEQDAATNGNVKTLIKDLASQIENQLDKVSTAMLSKGDEKKTKSDSSYRQVLVEEISRYNSKITRHVTNKQHETEKSMRCTQEMLFNVGSQLEDVHKVLLSLSKDMHSLQTRQTALEMAFREKADHAYDRPDVSLNGTTLLHDMDEAHDKQRKKSVPPPRMMVTRSMKRRRSSSPTLSTSQNHNSEDNDDASHRLKRAARTIIPWEELRPDTLESEL
# Target: the molecule itself
# Test: SEC
protein,measurement,value
B1,binding result,binds
